The text below walks through data of patent publication US20110311508A1 (NORTHWESTERN UNIVERSITY, published 2011).

The data set deals with the molecule itself. Nature of the data set: self-association (trimerization); EGS crosslinking of K562 cell extracts, SDS-PAGE, western blot. An excerpt:
FIG. 9: The HSF1 K80Q mutant is not defective in trimerization ability. A prerequisite of stable HSF binding to DNA is the formation of trimeric HSF complexes. Therefore, it is conceivable that mutations of K80 disrupted proper HSF1 folding or the stress-induced formation of HSF trimers. To explore this possibility, e a cross-linking assay was used to determine the formation of higher-order complexes upon heat shock. K562 cells were transfected with WT Myc-HSF1, Myc-HSF1 K80Q or Myc-HSF1 M391K, L395P, a previously characterized HSF1 mutant that is constitutively trimeric (14). Cells were treated with or without heat shock (HS, 42° C., 20 minutes) followed by treatment with the EGS crosslinking agent. Protein extracts were separated by SDS-PAGE and western blot analysis was performed with the indicated antibodies. The arrow indicates monomeric HSF1 and the arrowhead marks trimeric HSF1.

B1: Myc-HSF1 K80Q (other)
chain: MDLPVGPGAAGPSNVPAFLTKLWTLVSDPDTDALICWSPSGNSFHVFDQGQFAKEVLPKYFKHNNMASFVRQLNMYGFRQVVHIEQGGLVKPERDDTEFQHPCFLRGQEQLLENIKRKVTSVSTLKSEDIKIRQDSVTKLLTDVQLMKGKQECMDSKLLAMKHENEALWREVASLRQKHAQQQKVVNKLIQFLISLVQSNRILGVKRKIPLMLNDSGSAHSMPKYSRQFSLEHVHGSGPYSAPSPAYSSSSLYAPDAVASSGPIISDITELAPASPMASPGGSIDERPLSSSPLVRVKEEPPSPPQSPRVEEASPGRPSSVDTLLSPTALIDSILRESEPAPASVTALTDARGHTDTEGRPPSPPPTSTPEKCLSVACLDKNELSDHLDAMDSNLDNLQTMLSSHGFSVDTSALLDLFSPSVTVPDMSLPDLDSSLASIQELLSPQEPPRPPEAENSSPDSGKQLVHYTAQPLFLLDPGSVDTGSNDLPVLFELGEGSYFSEGDGFAEDPTISLLTGSEPPKAKDPTVS
notes: also called K80Q mutant; K80Q HSF1; not shown: Myc tag
In the case of B1, the binding result was “binds”.
